Results published in patent publication US20200223925A1 (Hoffmann-La Roche, published 2020).

Columns and labels:
[1] = molecular target: T1, human Fibroblast Activation Protein (FAP) (human, UniProt Q12884 1-760); assay: flow cytometry, 3T3-huFAP cells, PE anti-human IgG secondary, MFI
T1 construct: on 3T3-huFAP or MV3 cells in the functional assays; also called huFAP; 3T3-huFAP cells (clone 19)
Method: (§1) Binding was assessed by flow cytometry with a FACS Fortessa (BD, Software FACS Diva). Binding curves were obtained using GraphPadPrism6.

human CD28 = molecular target: T2, human CD28 (human, UniProt P10747 19-220); assay: flow cytometry, CHO cells stably overexpressing human CD28, monovalent one-armed IgG from supernatant, PE anti-human IgG secondary, MFI
T2 construct: on primary human T cells in the functional assays; also called huCD28; CHO cells expressing human CD28
Method: as §1

binding result [1] | binding result (human CD28) | Binder
binds | – | Molecule E: FAP(4B9)-CD28(SA) 1+2 format (bispecific antibody, human IgG1, kappa, L234A L235A, bivalent anti-CD28(SA), monovalent anti-FAP (VH on knob chain, VL on hole chain), huIgG1 PG-LALA; also called P1AD9011; FAP-CD28(SA) 1+2) light: not shown heavy 1: not shown heavy 2: QVQLVQSGAEVKKPGASVKVSCKASGYTFTSYYIHWVRQAPGQGLEWIGCIYPGNVNTNYNEKFKDRATLTVDTSISTAYMELSRLRSDDTAVYFCTRSHYGLDWNFDVWGQGTTVTVSSASTKGPSVFPLAPSSKSTSGGTAALGCLVKDYFPEPVTVSWNSGALTSGVHTFPAVLQSSGLYSLSSVVTVPSSSLGTQTYICNVNHKPSNTKVDKKVEPKSCDKTHTCPPCPAPEAAGGPSVFLFPPKPKDTLMISRTPEVTCVVVDVSHEDPEVKFNWYVDGVEVHNAKTKPREEQYNSTYRVVSVLTVLHQDWLNGKEYKCKVSNKALGAPIEKTISKAKGQPREPQVCTLPPSRDELTKNQVSLSCAVKGFYPSDIAVEWESNGQPENNYKTTPPVLDSDGSFFLVSKLTVDKSRWQQGNVFSCSVMHEALHNHYTQKSLSLSPGGGGGSGGGGSGGGGSGGGGSEIVLTQSPGTLSLSPGERATLSCRASQSVTSSYLAWYQQKPGQAPRLLINVGSRRATGIPDRFSGSGSGTDFTLTISRLEPEDFAVYYCQQGIMLPPTFGQGTKVEIK
– | binds | CD28(SA)_variant_28 (antibody, human IgG1, kappa, L234A L235A, monovalent one-armed IgG-like construct; from supernatant; also called P1AE3084) heavy: not shown light: not shown DKTHTCPPCPAPEAAGGPSVFLFPPKPKDTLMISRTPEVTCVVVDVSHEDPEVKFNWYVDGVEVHNAKTKPREEQYNSTYRVVSVLTVLHQDWLNGKEYKCKVSNKALGAPIEKTISKAKGQPREPQVCTLPPSRDELTKNQVSLSCAVKGFYPSDIAVEWESNGQPENNYKTTPPVLDSDGSFFLVSKLTVDKSRWQQGNVFSCSVMHEALHNRFTQKSLSLSP
